These are literature values, as cited in publication PMC4301871, “WW Domains of the Yes-Kinase-Associated-Protein (YAP) Transcriptional Regulator Behave as Independent Units with Different Binding Preferences for PPxY Motif-Containing Ligands” (PLoS ONE, 2015).

Data set [1] has as its target p53BP2 (Homo sapiens).
The target in data set [2] is p53BP2 (Homo sapiens). This is another data set of the same source.

Read-outs that look alike come from different tables or passages of the source.

YAP WW1, sequence (P46937 168-207): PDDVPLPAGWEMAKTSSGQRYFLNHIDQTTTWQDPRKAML
YAP WW2, sequence (P46937 227-266): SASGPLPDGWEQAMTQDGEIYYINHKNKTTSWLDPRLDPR

As usually defined, the Kd is the concentration at which binding is half-saturated. For YAP WW2 (from UniProt P46937), the Kd with p53BP2 (Homo sapiens) [1] was 12 µM.

As for YAP WW1 (from UniProt P46937), the Kd with p53BP2 (Homo sapiens) [2] is 1.8 µM.
